# From the DeepSol protein solubility set
# Assay: soluble on expression in E. coli; label from the status in PepcDB or PDB records
row,Sequence,soluble on expression in E. coli
1,AIAFRHTLSVDPSEQLSQDFADPVTDSGYESDEEAAAAATASLSGEEAALWNLVDPQQRLIFVLDGPAAQTLRVKRTGNLERQVVNIHRLPLERAPTVATSLLAATRPQHLVVALRTIEPHQAAAILTSTSYPSLSNVENASQVLVLANDLVQIDDPLLRPLWSDEGTQQNRIQLRWVETGCIGGITAALLAAGCWLRIPVLALLAVEDDDGPSPATLEALLLAAERFGCFTRADWEIRMPNLRQLLAKRQLLYI,soluble
2,AIAITGETEPACVEDASQLAEQRNGAPVMEAGCAAVPVEANATKRGYWRQRTLHSWFIGRKPQRTCIAVDIDEVLAFFVPELCAFHNKRYGTRLQATDFHSYRFAEVWGGTDTDAIRKVHEFFRTPAFQELQPIPGAKQVLQSRLARFRFVVVTSRQLVIEQETRAWLDKHFSGIFEAIYLGNQWALHPNGEHGTGVGSAAQEPQRLFANRRRKSQVCKACGAAVLIDDLPHNLLDCSENGVFGVLFDFQGQYGWSKSPAFESKDIAVVHSWEAVGELLDRL,soluble
3,AIAKLPISTISPIHYMKSVVSSRETRNESNKSRRTFASTEWNKIIRETLYLETVYIPVDATSHSPDIIFKLQSPVEPKVLTVGVACKGRWKSEGIGWSDIIDEAKKFLDPVYDQVLSSAMDYHHCMLIIVSTKLSLNVSNELGNQSRCYSSGMFIGGDSFKVPDNCELVILCERDVQMLIDKEILNGLERAFCVSHNPTFWDFGLDLLDRIRNSFLSWQ,soluble
4,AIAKNFNDEEHNSQLTDEVLPEPEDARVIANILKAVGVESFDTRVVAQLVEFVYKYIGEVLELSKTFAQYAEREDIRQDDVKLAISSLLSKSFTQPPSRDVLLQLCRERNAVPLPVVDTYVGIQLPPKEFQLTTRNYQLKRKTTTESVASQELSEATGNISIGESSLQPNEEESNTMNT,soluble
5,AIALVEDSGHHLPESADIENALDLLLKAQLERAFGPELAEHFWAARQPRTLDERLAFIRKCWIGVFKDSPLSTFGLERLEQLERLCRSKRRGRELSAAEHHQFAEELARLWEQVQRLLPRAAPETSYASSASAGGVHSGDAHTPATLSDAESAHAAPEAMRIEAPATSARSASGCMARVSSDVAAAATNVSLVVLDGENIAWAHGQNAVFSPKGIAIAVDFFRKRGYRCVVFLPDYRRKRADLPTVSASDALVFVPAGEYDDTFALGYAVGHDAILVTNDLLQDHLDQFYPDEGEAREALRKWLGSHRCSFTFVGDEFLPNPHFFLP,soluble
6,AIALVSHGAIVKSAPKHWNGSKCPIRMQVRVPDPDRRSLLRAGAHIILGGLLATVIPGTSPSIAKIREKPTDKGEEAPKIDDEKELDKYVSGLKYEEELYENPDPAEKEVYRTPRVEREPEYKKKEDEILEKESKVLKEEAREAARESEVLRQEFEKR,soluble
7,AIALWKLVENVKYEDIYEDRHDGVPSHSSRLSQLGSVSQGPYSSAPPLSHTPSSDFQPPYFPPPYQPLPYHQSQDPYSHVSDPYSLNALHQPQQHPWGSRQRQDLQGTESGGLLPQPRASLPQLSGLDPRRDYSTVRRPDVLLHSTHHGLEAGMGDGLSLHGLAHGMDDVQAVEDLNGAMNILDRTPLGNSRPSPILEPGIQSCLSHFSFITHGFGSPAICAALTALQNYLTEALKGLDKMFLNNPTPNRHTPADGSKGGEKEEKHRK,soluble
8,AIAQRFLDSISAATQAKSPAEHETLVAMADLYAIITCVEYLERAWRANAVSDEDYTRNCSRLIAQFRATRQLVMDDVPSVISFLEEYHLAARAAMNRLQVGVPATVEHANSSDETRRRNFTAAAIQATEAFLTFRDALELGERSVDRLLPYLREILLVLGRMGAVFGTADGDATVQRERIVQWVRRLDAMHAYEQITEEDKRQLAHDVDTLYDTFRRRVGELEM,soluble
9,AIAQSRKQLPITNAVIHPVVLLGIVDHYNRACKNTRKRAVGILLGTIDRRGHAEVLNSFAVPFEEDERNPTVFFFDHDYVENMAAMFRKVTARERIIGWYSTGPQIRPADMGVHEIVQGFCSSGHALYVICQVDPKETGLPTEAYVSLEEDSVALEGSAPGQPRRIFEHVPNSIGALEAEEVGTEHLLRDVRNWSVSTLTGEVRAKLDALQSLRARLENIRRYLEEVASGNLPLHQEILHALQLVLKGLPRNAASSELTQAFAVCSNEQTLLIYVATLLRSVLVLHDLVNNKTELLETERKMEVAFSNATTAMDAPGSPTVADSL,soluble
10,AIASEVSCKKRDDYLEWPEYFMAVAFLSAQRSKDPNSQVGACIVNSENKIVGIGYNGMPNGCSDDVLPWRRTAENKLDTKYPYVCHAELNAIMNKNLTDVKGCSMYVALFPCNECAKLIIQAGIKEVIFMSDKYHDSDEATAARLLFNMAGVTFRKFIPKCSKIVIDFDSINSRPSQKLQ,soluble
11,AIAVHQASPVKNISDTRPKRSPEYWYYYCTYEDNSVKSPLVPGLKVETQAVADRFSADIFSAVERYNQLFSEVQKQSFKYVPEEESDNQSN,soluble
12,AKTPVREILLFDSDEFLQHNAFRAPGAPTLEALRDAEKKVEYFKSIYSNMHKRISTSSTYIDEENLELLNGVTFAFICIDAGTSKKSIVQKLEELDIPFVDVGM,not soluble
13,AMAISDPEETLMDSTTATAELGWMVHPPSGWEEVSGYDENMNTIRTYQVCNVFESSQNNWLRTKFIRRRGAHRIHVEMKFSVRDCSSIPSVPGSCKETFNLYYYEADFDLATKTFPNWMENPWVKVDTIAADESISQVDLGGRVMKINTEVRSFGPVSRNGFYLAFQDYGGCMSLIAVRVFYRKCPR,soluble
14,ANEMTYEQLARELLLVGPAPTNEDLKLRYLDVLIDNGLNPPGPPKRILIVGAGIAGLVAGDLLTRAGHDVTILEANANRVGGRIKTFHAKKGEPSPFADPAQYAEAGAMRLPSFHPLTLALIDKLGLKRRLFFNVDIDPQTGNQDAPVPPVFYKSFKDGKTWTNGAPSPEFKEPDKRNHTWIRTNREQVRRAQYATDPSSINEGFHLTGCETRLTVSDMVNQALEPVRDYYSVKQDDGTRVNKPFKEWLAGWADVVRDFDGYSMGRFLREYAEFSDEAVEAIGTIENMTSRLHLAFFHSFLGRSDIDPRATYWEIEGGSRMLPETLAKDLRDQIVMGQRMVRLEYYDPGRDGHHGELTGPGGPAVAIQTVPEGEPY,soluble
15,ANFNVPKLGVFPVAAVFDIDNVPEDSSATGSRWLPSIYQGGNYWGGGPQALHAQVSNFDSSNRLPYNPRTENNPAGNCAFAFNPFGQYISNISSAQSVHRRIYGIDLNDEPLFSPNAASITNGGNPTMSQDTGYHNIGPINTAYKAEIFRPVNPLPMSDTAPDPETLEPGQTEPLIKSDGVYSNSGIASFIFDRPVTEPNPNWPPLPPPVIPIIYPTPALGIGAAAAYGFGYQVTVYRWEEIPVEFIADPETCPAQPTTDKVIIRTTDLNPEGSPCAYEAGIILVRQTSNPMNAVAGRLVPYVEDIAVDIFLTGKFFTLNPPLRITNNYFADDEVKENTVTIGNYTTTLSSAYYAVYKTDGYGGATCFIASGGAGISALVQLQDNSVLDVLYYSLPLSLGGSKAAIDEWVANNCGLFPMSGGLDKTTLLEIPRRQLEAINPQDGPGQYDLFILDDSGAYASFSSFIGYPEAAYYVAGAATFMDVENPDEIIFILRNGAGWYACEIGDALKIADDEFDSVDYFAYRGGVMFIGSARYTEGGDPLPIKYRAIIPGLP,soluble
16,ANSVQQQLEALEKSSGGRLGVALINTADNSQILYRADERFAMCSTSKVMAAAAVLKQSESDKHLLNQRVEIKKSDLVNYNPIAEKHVNGTMTLAELGAAALQYSDNTAMNKLIAHLGGPDKVTAFARSLGDETFRLDRTAPTLNTAIPGDPRDTTTPLAMAQTLKNLTLGKALAETQRAQLVTWLKGNTTGSASIRAGLPKSWVVGDKTGSGDYGTTNDIAVIWPENHAPLVLVTYFTQPEQKAERRRDILAAAAKIVTHGF,soluble
17,APEAFLNSVLQPFVLPFLQRYPKIQLKLRAADGEIDLFRQGIDVAFKLTDKPDENLVLKEISKTNLVLCASPDYLAQRGMPEHPTQLEQHDCIYLAENDKDNIWSFFKEEAFHSIAVSGRYAVNHSQMRLNGVKAGLGIGIFHDFVVKEALERGEVVEVLSDWMIKSNYHGAVAMQYAQTKYMPARLRVFIGFVNEHLVSKEPTHV,not soluble
18,APTLISLLEVIEPEVLYSGYDSTLPDTSTRLMSTLNRLGGRQVVSAVKWAKALPGFRNLHLDDQMTLLQYSWMSLMAFSLGWRSYKQSNGNMLCFAPDLVINEERMQLPYMYDQCQQMLKISSEFVRLQVSYDEYLCMKVLLLLSTVPKDGLKSQAVFDEIRMTYIKELGKAIVKREGNSSQNWQRFYQLTKLLDSMHEMVGGLLQFCFYTFVNKSLSVEFPEMLAEIISNQLPKFKAGSVKPLLFHQK,soluble
19,APWFLEYSKSECHFYNGTQRVRLLVRYFYNLEENLRFDSDVGEFRAVTELGRPDAENWNSQPEFLEQKRAEVDTVCRHNYEIFDNFLVPRRVEPTVTVYPTKTQPLEHHNLLVCSVSDFYPGNIEVRWFRNGKEEKTGIVSTGLVRNGDWTFQTLVMLETVPQSGEVYTCQVEHPSLTDPVTVEW,soluble
20,AQRVKDRPDGDTRRSELTMKLINKRGAVRERKLISYSIDMGKDKKDKKTIMFFLYPGDVKGTGFLTWDYDQIGKDDDKWLYLPAMKKTRRISGASAKKDYFMGSDFTYDDMGSRNVDEDTHKLLGEETFDGHKCWKLESTSKDQRDVFSKKIAWIRQDCLIPVRVEYYDRMNRLHRLLELSDIAQVDGFWMAQKMNMSNVQTGHRTVLEIKKPEFNRPIDESKFTVTSLEK,not soluble
21,ARDTLFVNLTDATDSQSLKLSDFGNTVRYVPLETNEVCLIGNNPHIALLEDKIVIATKDQCFLFHKQTGKYICSIGHIGDDPSGYSSTNYWIDDAGLFYFFRAPDQLLKYNQKGEMTGKIQIPHIPAAPDFFAFSDSTIIAHCNSSIGLESSNSLLFLNSFGEKLDSIPNLLKSPSIPSPDNISSLSIIKRGAGFFGNLGRRGVMIIKDKEQGELLLPLYNPSLWSSENEVRFRETFTDTIYTIKNRKLYPYMVFHTDTDHSSANPLWYSNPQSIYVAYVLENTHSVFFQYVKNKQVYNGLYNKETQQTKFAKCQQFIVDDLTSEQELKVDLSALCSYKGEYGFILEAASIPDASQKQSDNKNENIPHWMSQLDEDANPVIAIVSDK,soluble
22,ASVLTVKDIARKKPAAVFKKSEHDGPGSAMQILMDHDRDYGIVVDKSSRYSGIVSLDSLRLAHKENRSLASAQLEDDVTLQPDQSVNDILGVVASVPYAVPVVDEQGTYFGVVTKSRLLQTLDKD,soluble
23,ATDKRLLGNTAIIGQSGSGKTVLLGFLLAQAQKFKPTTVVFDKDRGMEIAIRAMGGRYLTFKPGRQSGFNPFQLPPTQDNLTFLKQFVKKLAEASSEITHRDEEEINQAVMSIMSSNINPSLRRLSFLLQFLPNPHLNDYNSHPSVHTRLIKWCEGGDYGWLFDNPTDALDLSTHQIYGFDITEFLDNPETRTPVMMYLLYRTEGMISGQRFMYIFDEFWKPLQDPYFEDLAKNKQKTIRKQNGIFVFATQEPTDALESNIAKTLIQQCATYIFLA,not soluble
24,ATRMAPVIMVPGSSASQNRFDSLITELGKETPKKHSVLKLTVQTDGTIKYSGSIAANDNEPFIVIGFANNRDGKANIDKQAVWLNTAFKALVKTYHFNHFYALGHSNGGLIWTLFLERYLKESPKVHIDRLMTIASPYNMESTSTTAKTSMFKELYRYRTGLPESLTVYSIAGTENYTSDGTVPYNSVNYGKYIFQDQVKHFTEITVTGANTAHSDLPQNKQIVSLIRQYLLAETMPDKVRQKNAQRVQN,soluble
